Results taken from patent publication US20250019439A1 (Adimab, published 2025).
Where two headings read alike, the source gives them in different places.

What was measured:
ADI-26920 Fab = target: T1, ADI-26920 Fab; assay: BLI; tip ADI-34145 IgG, solution anti-CD3 Fab
T1 construct: anti-CD3 Fab by papain digestion of the IgG
Description: (§1) ForteBio affinity measurements were performed generally as previously described (Estep et al., MAbs. 2013 5(2):270-8). Briefly, ForteBio affinity measurements were performed by loading antibody IgG or Fabs on-line onto AHC sensors. Sensors were equilibrated off-line in assay buffer for 30 minutes and then monitored on-line for 60 seconds for baseline establishment. For avid binding measurement, sensors with loaded antibodies were exposed to IgG or Fab solutions for 3 minutes, afterwards they were transferred to assay buffer for 3 minutes for off-rate measurement. Kinetics data were fit using a 1:1 binding model in the data analysis software provided by ForteBio to obtain equilibrium dissociation constant (KD=koff/kₒₙ) values. In each column, tip-immobilized antibodies are listed first and solution antibodies second.
(§2) CTL-19613 is an IgG1 antibody prepared with anti-CD3 variable domains corresponding with those of clone 12C described in United States Publication Number US 2010/0183615 (e.g., see paragraphs 469-479 and FIG. 25 thereof), which also make up the CD3 binding domain of the bispecific antibody pasotuxizumab. […] In each column, tip-immobilized antibodies are listed first and solution antibodies second.

ADI-22523 Fab [1] = target: T2, ADI-22523 Fab; assay: BLI; tip ADI-34145 IgG, solution anti-CD3 Fab
T2 construct: anti-CD3 Fab by papain digestion of the IgG
Description: as §1, §2

CTL-19672 Fab = target: T3, CTL-19672 Fab; assay: BLI; tip ADI-34145 IgG, solution anti-CD3 Fab
T3 construct: anti-CD3 Fab by papain digestion of the IgG1
Description: as §1, §2

CTL-19613 Fab = target: T4, CTL-19613 Fab; assay: BLI; tip ADI-34145 IgG, solution anti-CD3 Fab
T4 construct: anti-CD3 Fab by papain digestion of the IgG1
Description: as §1, §2

CTL-62227 [2] = target: T5, CTL-62227; assay: SPR Carterra, yeast anti-ID
T5 construct: also called odronextamab
Outline: (§3)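 Goat anti-human Fc was amine-coupled to an HC30M sensor chip, then anti-CD3 antibodies at 100 nM were flowed over discrete spots for 5 min. Anti-idiotype antibodies were run in non-regenerative kinetic cycles at 25° C in HBSTE, with 300s dissociation. Blank-subtracted sensorgrams were fitted 1:1.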

CTL-62228 [3] = target: T6, CTL-62228; assay: SPR Carterra, yeast anti-ID
T6 construct: also called glofitamab
Outline: as §3

ADI-67445 = target: T7, ADI-67445; assay: SPR Carterra, yeast anti-ID
T7 construct: anti-CD3 antibody made in CHO cells, captured by anti-human Fc
Outline: as §3

ADI-70327 = target: T8, ADI-70327; assay: SPR Carterra, yeast anti-ID
T8 construct: anti-CD3 antibody made in CHO cells, captured by anti-human Fc
Outline: as §3

CTL-62223 = target: T9, CTL-62223; assay: SPR Carterra, yeast anti-ID
T9 construct: also called mosunetuzumab
Outline: as §3

CTL-62240 [4] = target: T10, CTL-62240; assay: SPR Carterra, yeast anti-ID
T10 construct: also called ONO-4685
Outline: as §3

ADI-70326 = target: T11, ADI-70326; assay: SPR Carterra, CHO anti-ID
T11 construct: anti-CD3 antibody made in CHO cells, captured by anti-human Fc
Description: (§4) Kinetic analysis was conducted at 25° C. in an HBSTE running buffer system (Carterra Cat #3630) using a Carterra LSA (Carterra USA, Salt Lake City, UT). The sample compartment was maintained at 20° C. for the duration of each experiment.
(§5) For antibody capture experiments, a goat anti-human Fc antibody (Jackson ImmunoResearch) was covalently coupled to an HC30M sensor chip surface via standard amine coupling (1:1 EDC:NHS) and then blocked with ethanolamine (1.0 M, pH 8.5). Covalent coupling steps were performed in 25 mM MES buffer (Carterra, Cat #3625) plus 0.05% Tween20. The anti-CD3 antibodies (100 nM in running buffer) were flowed over discrete regions of interest on the chip surface for 5 minutes. […] Dissociation of the anti-idiotype antibodies was monitored for 300s. Several blank buffer samples were injected over the entire chip surface at the start of each non-regenerative kinetic cycle. The preceding blank buffer injection was used for blank surface subtraction. At the end of each non-regenerative kinetic cycle, all surfaces were regenerated via two 30s injections of 10 mM glycine, pH 1.7.
(§6) In Tables 10A-10C, anti-CD3 antibodies are listed by ADI number or CTL number in the first column. […] CTL-62223 is mosunetuzumab, CTL-62227 is odronextamab, CTL-62228 is glofitamab, and CTL-62240 is ONO-4685. […] “W.B.” means weak binding under the conditions of this assay and thus a KD was unable to be assigned. “N.B.” means no binding under the conditions of this assay.

ADI-26920 IgG = target: T12, ADI-26920 IgG; assay: BLI; tip anti-CD3 IgG, solution ADI-34145 IgG
T12 construct: anti-CD3 IgG
Description: as §1, §2

ADI-22523 IgG = target: T13, ADI-22523 IgG; assay: BLI; tip anti-CD3 IgG, solution ADI-34145 IgG
T13 construct: anti-CD3 IgG
Description: as §1, §2

ADI-26913 IgG [5] = target: T14, ADI-26913 IgG; assay: BLI; tip anti-CD3 IgG, solution ADI-34145 IgG
T14 construct: anti-CD3 IgG
Description: as §1, §2

CTL-19672 IgG = target: T15, CTL-19672 IgG; assay: BLI; tip anti-CD3 IgG, solution ADI-34145 IgG
T15 construct: IgG1 with the anti-CD3 variable domains of clone 38E4v1
Description: as §1, §2

ADI-26906 Fab = target: T16, ADI-26906 Fab; assay: BLI; tip ADI-34145 IgG, solution anti-CD3 Fab
T16 construct: anti-CD3 Fab by papain digestion of the IgG
Description: as §1
(§7) In each column, tip-immobilized antibodies are listed first and solution antibodies second.

ADI-22523 Fab [6] = target: T2, ADI-22523 Fab; assay: BLI; tip ADI-34145 IgG, solution anti-CD3 Fab; remark: listed apart in the source
Description: as §1, §7

ADI-26913 Fab = target: T17, ADI-26913 Fab; assay: BLI; tip ADI-34145 IgG, solution anti-CD3 Fab
T17 construct: anti-CD3 Fab by papain digestion of the IgG
Description: as §1, §7

ADI-26954 Fab = target: T18, ADI-26954 Fab; assay: BLI; tip ADI-34145 IgG, solution anti-CD3 Fab
T18 construct: anti-CD3 Fab by papain digestion of the IgG
Description: as §1, §7

ADI-26906 IgG = target: T19, ADI-26906 IgG; assay: BLI; tip ADI-34134 IgG, solution anti-CD3 IgG
T19 construct: anti-CD3 IgG
Description: as §1, §7

ADI-26913 IgG [7] = target: T14, ADI-26913 IgG; assay: BLI; tip ADI-34134 IgG, solution anti-CD3 IgG
Description: as §1, §7

ADI-26916 IgG = target: T20, ADI-26916 IgG; assay: BLI; tip ADI-34134 IgG, solution anti-CD3 IgG
T20 construct: anti-CD3 IgG
Description: as §1, §7

CTL-62227 [8] = target: T5, CTL-62227; assay: SPR Carterra, CHO anti-ID
Description: as §4, §5, §6

CTL-62228 [9] = target: T6, CTL-62228; assay: SPR Carterra, CHO anti-ID
Description: as §4, §5, §6

CTL-62240 [10] = target: T10, CTL-62240; assay: SPR Carterra, CHO anti-ID
Description: as §4, §5, §6

T10 sequence (VH, as listed by the source, chain 1 of 2): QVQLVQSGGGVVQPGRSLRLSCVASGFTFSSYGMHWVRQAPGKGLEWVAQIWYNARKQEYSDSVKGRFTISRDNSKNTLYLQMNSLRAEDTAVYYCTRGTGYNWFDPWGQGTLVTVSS
T10 sequence (VL, as listed by the source, chain 2 of 2): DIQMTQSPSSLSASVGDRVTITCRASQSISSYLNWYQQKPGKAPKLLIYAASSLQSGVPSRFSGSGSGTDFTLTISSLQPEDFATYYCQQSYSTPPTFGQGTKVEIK
T2 sequence (VH, as listed by the source limits assumed, chain 1 of 2): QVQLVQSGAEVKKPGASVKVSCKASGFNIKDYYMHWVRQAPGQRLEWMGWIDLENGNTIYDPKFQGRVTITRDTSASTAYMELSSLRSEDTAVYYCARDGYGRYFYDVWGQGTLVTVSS
T2 sequence (VL, as listed by the source limits assumed, chain 2 of 2): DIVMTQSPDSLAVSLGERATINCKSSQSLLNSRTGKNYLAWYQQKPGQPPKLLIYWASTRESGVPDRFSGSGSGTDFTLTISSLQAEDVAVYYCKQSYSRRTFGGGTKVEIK
T5 sequence (VH, as listed by the source, chain 1 of 2): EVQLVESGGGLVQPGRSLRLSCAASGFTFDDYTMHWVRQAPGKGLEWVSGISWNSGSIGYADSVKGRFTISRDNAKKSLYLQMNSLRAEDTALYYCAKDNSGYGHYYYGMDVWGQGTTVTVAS
T5 sequence (VL, as listed by the source, chain 2 of 2): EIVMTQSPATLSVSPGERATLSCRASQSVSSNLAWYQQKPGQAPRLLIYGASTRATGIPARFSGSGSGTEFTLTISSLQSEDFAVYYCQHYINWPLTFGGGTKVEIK
T14 sequence (VH, as listed by the source limits assumed, chain 1 of 2): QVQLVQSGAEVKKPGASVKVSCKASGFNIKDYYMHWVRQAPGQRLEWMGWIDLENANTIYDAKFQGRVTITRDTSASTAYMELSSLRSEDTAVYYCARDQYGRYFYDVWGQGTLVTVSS
T14 sequence (VL, as listed by the source limits assumed, chain 2 of 2): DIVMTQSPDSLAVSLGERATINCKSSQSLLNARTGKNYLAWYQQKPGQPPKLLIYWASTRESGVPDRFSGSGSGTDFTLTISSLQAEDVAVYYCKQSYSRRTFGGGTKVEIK
T16 sequence (VH, as listed by the source limits assumed, chain 1 of 2): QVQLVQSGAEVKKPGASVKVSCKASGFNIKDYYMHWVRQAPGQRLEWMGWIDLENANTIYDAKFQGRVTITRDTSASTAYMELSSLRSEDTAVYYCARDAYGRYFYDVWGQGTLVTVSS
T15 sequence (VH, as listed by the source limits assumed, chain 1 of 2): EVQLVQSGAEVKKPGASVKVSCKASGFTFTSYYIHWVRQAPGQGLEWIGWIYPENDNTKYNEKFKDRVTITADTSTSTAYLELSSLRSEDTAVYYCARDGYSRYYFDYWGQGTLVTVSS
T15 sequence (VL, as listed by the source limits assumed, chain 2 of 2): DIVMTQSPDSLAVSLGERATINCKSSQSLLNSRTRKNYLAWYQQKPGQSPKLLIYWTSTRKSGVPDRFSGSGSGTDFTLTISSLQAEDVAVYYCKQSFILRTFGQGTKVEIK
T9 sequence (VH, as listed by the source, chain 1 of 2): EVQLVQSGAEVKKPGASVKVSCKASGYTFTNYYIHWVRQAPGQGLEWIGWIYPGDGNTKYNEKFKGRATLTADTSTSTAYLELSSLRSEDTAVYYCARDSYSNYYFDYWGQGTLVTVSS
T9 sequence (VL, as listed by the source, chain 2 of 2): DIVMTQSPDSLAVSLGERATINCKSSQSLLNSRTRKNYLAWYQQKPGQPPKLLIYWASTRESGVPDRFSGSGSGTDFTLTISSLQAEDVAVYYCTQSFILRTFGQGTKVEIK
T12 sequence (VH, as listed by the source limits assumed, chain 1 of 2): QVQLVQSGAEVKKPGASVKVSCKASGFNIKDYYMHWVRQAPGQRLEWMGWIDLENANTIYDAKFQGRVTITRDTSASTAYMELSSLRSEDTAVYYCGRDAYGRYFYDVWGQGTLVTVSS
T12 sequence (VL, as listed by the source limits assumed, chain 2 of 2): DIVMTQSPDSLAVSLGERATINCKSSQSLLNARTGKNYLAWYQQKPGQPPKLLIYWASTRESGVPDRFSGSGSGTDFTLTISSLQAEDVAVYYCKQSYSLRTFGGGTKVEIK
T7 sequence (VH, as listed by the source limits assumed, chain 1 of 2): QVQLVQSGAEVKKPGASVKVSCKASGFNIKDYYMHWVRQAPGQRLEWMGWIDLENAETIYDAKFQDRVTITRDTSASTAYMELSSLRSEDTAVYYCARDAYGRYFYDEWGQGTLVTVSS
T8 sequence (VH, as listed by the source limits assumed, chain 1 of 2): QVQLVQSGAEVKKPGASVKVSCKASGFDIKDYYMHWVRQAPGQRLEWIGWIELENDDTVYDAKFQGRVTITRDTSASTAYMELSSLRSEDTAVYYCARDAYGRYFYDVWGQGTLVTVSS
T8 sequence (VL, as listed by the source limits assumed, chain 2 of 2): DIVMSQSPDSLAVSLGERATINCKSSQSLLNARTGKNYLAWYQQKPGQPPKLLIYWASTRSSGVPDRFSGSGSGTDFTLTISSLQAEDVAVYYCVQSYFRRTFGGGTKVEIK
T11 sequence (VH, as listed by the source limits assumed, chain 1 of 2): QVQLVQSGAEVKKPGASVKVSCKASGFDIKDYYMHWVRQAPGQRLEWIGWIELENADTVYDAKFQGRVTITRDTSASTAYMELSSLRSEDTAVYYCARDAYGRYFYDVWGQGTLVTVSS
T20 sequence (VH, as listed by the source, chain 1 of 2): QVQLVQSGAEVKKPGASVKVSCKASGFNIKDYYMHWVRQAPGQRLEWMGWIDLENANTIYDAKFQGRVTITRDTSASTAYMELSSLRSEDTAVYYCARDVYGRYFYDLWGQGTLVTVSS
T18 sequence (VH, as listed by the source limits assumed, chain 1 of 2): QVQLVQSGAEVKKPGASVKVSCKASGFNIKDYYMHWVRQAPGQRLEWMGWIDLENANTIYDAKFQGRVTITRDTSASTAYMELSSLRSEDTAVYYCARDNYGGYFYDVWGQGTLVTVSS
T18 sequence (VL, as listed by the source limits assumed, chain 2 of 2): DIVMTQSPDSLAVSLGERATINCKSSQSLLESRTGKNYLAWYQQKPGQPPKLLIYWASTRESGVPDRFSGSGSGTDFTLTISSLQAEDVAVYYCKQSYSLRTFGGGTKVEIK

B1: ADI-34145 IgG (antibody, V domains shown)
VH: EVQLLESGGGLVQPGGSLRLSCAASGFTFSSYAMSWVRQAPGKGLEWVSTISGSGGSTYYADSVKGRFTISRDNSKNTLYLQMNSLRAEDTAVYYCARLGGRRGSGSSYYYYYGMDVWGQGTTVTVSS
VL: not shown
notes: anti-ID IgG
ADI-26920 Fab
  Kd: 3.71 nM
ADI-22523 Fab [1]
  Kd: 3.16 nM
CTL-19672 Fab
  binding result: no binding
CTL-19613 Fab
  binding result: no binding
CTL-62227 [2]
  binding result: no binding (tested: up to 200 nM)
CTL-62228 [3]
  binding result: no binding (tested: up to 200 nM)
ADI-67445
  binding result: no binding (tested: up to 200 nM)
ADI-70327
  binding result: no binding (tested: up to 200 nM)
CTL-62223
  binding result: no binding (tested: up to 200 nM)
CTL-62240 [4]
  binding result: no binding (tested: up to 200 nM)
ADI-70326
  binding result: no binding (tested: up to 200 nM)
ADI-26920 IgG
  Kd: 3.5 nM
ADI-22523 IgG
  Kd: 2.6 nM
ADI-26913 IgG [5]
  Kd: 1.03 nM
CTL-19672 IgG
  binding result: no binding
ADI-26906 Fab
  Kd: 3.55 nM
ADI-22523 Fab [6]
  Kd: 4.13 nM
ADI-26913 Fab
  Kd: 7.52 nM
ADI-26954 Fab
  Kd: 19.4 nM

B2: ADI-34134 IgG (antibody, V domains shown)
VH: QVQLVQSGAEVKKPGSSVKVSCKASGGTFSSYAISWVRQAPGQGLEWMGGIIPIFGTANYAQKFQGRVTITADESTSTAYMELSSLRSEDTAVYYCARGAPNYYGSGGYDDGWFDPWGQGTLVTVSS
VL: EIVLTQSPGTLSLSPGERATLSCRASQSVSSDYLAWYQQKPGQAPRLLIYGASSRATGIPDRFSGSGSGTDFTLTISRLEPEDFAVYYCQQFGRVPTFGGGTKVEIK
ADI-26906 IgG
  Kd: 0.43 nM
ADI-26913 IgG [7]
  Kd: 0.77 nM
ADI-26916 IgG
  Kd: 0.57 nM
CTL-62227 [8]
  binding result: no binding (tested: up to 200 nM)
CTL-62228 [9]
  binding result: no binding (tested: up to 200 nM)
CTL-62240 [10]
  binding result: no binding (tested: up to 200 nM)
